Test results as given in the supplement of paper PMC9233669.
This sample holds only a part of the variants without activity.

Tests used:
[1] = tested on: biotinyl-Phe-oxazolone; assay: self-aminoacylation, catalytic enhancement (BFO) (fold over background); higher = more active; k-Seq, kA / k0A0; sequences stand for … in GGGAAUGGAUCCACAUCUACGAAUUC…UUCACUGCAGACUUGACGAAGCUG
Procedure, shortened: (§1)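 Catalytic enhancement equals the median kA over the uncatalyzed rate, the latter read from the low-activity peak of a bimodal Gaussian fit. Values of kA came from fitting each sequence's fraction reacted to a pseudo-first-order model, with 1000 bootstraps. Reacted RNA was captured with streptavidin and quantified by triplicate qPCR and Illumina sequencing after 90 minutes at room temperature with 2–1250 μM biotinyl-aminoacyl-oxazolone and 0.43 μM mutagenized RNA pools bearing a 21-nt variable region.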

[2] = tested on: biotinyl-Leu-oxazolone; assay: self-aminoacylation, catalytic enhancement (BLO) (fold over background); higher = more active; k-Seq, kA / k0A0; sequences stand for … in GGGAAUGGAUCCACAUCUACGAAUUC…UUCACUGCAGACUUGACGAAGCUG
Procedure, shortened: as §1

[3] = tested on: biotinyl-Ile-oxazolone; assay: self-aminoacylation, catalytic enhancement (BIO) (fold over background); higher = more active; k-Seq, kA / k0A0; sequences stand for … in GGGAAUGGAUCCACAUCUACGAAUUC…UUCACUGCAGACUUGACGAAGCUG
Procedure, shortened: as §1

[4] = tested on: biotinyl-Met-oxazolone; assay: self-aminoacylation, catalytic enhancement (BMO) (fold over background); higher = more active; k-Seq, kA / k0A0; sequences stand for … in GGGAAUGGAUCCACAUCUACGAAUUC…UUCACUGCAGACUUGACGAAGCUG
Procedure, shortened: as §1

[5] = tested on: biotinyl-Trp-oxazolone; assay: self-aminoacylation, catalytic enhancement (BWO) (fold over background); higher = more active; k-Seq, kA / k0A0; sequences stand for … in GGGAAUGGAUCCACAUCUACGAAUUC…UUCACUGCAGACUUGACGAAGCUG
Procedure, shortened: as §1

[6] = tested on: biotinyl-Val-oxazolone; assay: self-aminoacylation, catalytic enhancement (BVO) (fold over background); higher = more active; k-Seq, kA / k0A0; sequences stand for … in GGGAAUGGAUCCACAUCUACGAAUUC…UUCACUGCAGACUUGACGAAGCUG
Procedure, shortened: as §1

| Sequence | self-aminoacylation [1] | self-aminoacylation [2] | self-aminoacylation [3] | self-aminoacylation [4] | self-aminoacylation [5] | self-aminoacylation [6] |
| --- | --- | --- | --- | --- | --- | --- |
| CUACCUAAAACAAUCGGUCUG [Fam1A.1 aminoacylation ribozyme variant] | 0.787 | 0.624 | 0.883 | 0.761 | 0.697 | 0.991 |
| CUACCUCAAACAAUCGCUCUG [Fam1A.1 aminoacylation ribozyme variant] | 0.589 | 1.27 | 0.818 | 0.85 | 1.83 | 1.17 |
| CUACCUCAAACACUCGGUCUG [Fam1A.1 aminoacylation ribozyme variant] | 1.74 | 1.31 | 1.22 | 1.08 | 1.93 | 1.6 |
| CUACCUCAAACGAUCGGUCUG [Fam1A.1 aminoacylation ribozyme variant] | 1.42 | 1.03 | 0.987 | 1 | 0.954 | 0.761 |
| CUACCUCAAAUAAUCGGUCUG [Fam1A.1 aminoacylation ribozyme variant] | 1.1 | 1.12 | 1.05 | 1.08 | 1.23 | 0.863 |
| CUACGUAAAACAAUCGGUCUG [Fam1A.1 aminoacylation ribozyme variant] | 1.38 | 0.755 | 1.18 | 0.999 | 0.819 | 0.999 |
| CUACGUCAAACAAACGGUCUG [Fam1A.1 aminoacylation ribozyme variant] | 0.89 | 1.16 | 1.06 | 1.08 | 0.904 | 1.03 |
| CUACGUCACACAAUCGGUCUG [Fam1A.1 aminoacylation ribozyme variant] | 0.794 | 0.98 | 0.999 | 0.943 | 0.986 | 0.962 |
| CUACGUCAGACAAUCGGUCUG [Fam1A.1 aminoacylation ribozyme variant] | 1.67 | 1.28 | 1.61 | 1.86 | 0.99 | 1.42 |
| CUACGUCGAACAAUCGGUCUG [Fam1A.1 aminoacylation ribozyme variant] | 4.04 | 1.83 | 1.7 | 1.91 | 1.3 | 1.93 |
| CUACUACAAACAAUCAGUCUG [Fam1A.1 aminoacylation ribozyme variant] | 0.88 | 0.7 | 0.657 | 0.467 | 0.554 | 0.732 |
| CUACUACAAACAAUCGGACUG [Fam1A.1 aminoacylation ribozyme variant] | 0.703 | 0.582 | 0.852 | 0.695 | 0.469 | 0.769 |
| CUACUACAAACAAUCGGGCUG [Fam1A.1 aminoacylation ribozyme variant] | 0.456 | 1.07 | 1.16 | 0.989 | 0.83 | 1.05 |
| CUACUACAAACCAUCGGUCUG [Fam1A.1 aminoacylation ribozyme variant] | 0.739 | 0.702 | 0.837 | 0.845 | 0.765 | 0.822 |
| CUACUACAUACAAUCGGUCUG [Fam1A.1 aminoacylation ribozyme variant] | 0.703 | 0.641 | 0.812 | 0.901 | 0.58 | 0.782 |
| CUACUCCAAAAAAUCGGUCUG [Fam1A.1 aminoacylation ribozyme variant] | 1.33 | 0.857 | 0.894 | 0.674 | 1.06 | 0.846 |
| CUACUCCAAACAAUCCGUCUG [Fam1A.1 aminoacylation ribozyme variant] | 0.642 | 0.759 | 0.838 | 0.636 | 0.582 | 0.821 |
| CUACUCCAAACAAUCGGGCUG [Fam1A.1 aminoacylation ribozyme variant] | 1.02 | 1.29 | 1.36 | 1.61 | 1.14 | 1.01 |
| CUACUCUUCAAGCAAUCGGUC [Fam1B.1 aminoacylation ribozyme variant] | 25.4 | 1.07 | 0.859 | 0.904 | 11 | 0.924 |
| CUACUGCAAACAAUCCGUCUG [Fam1A.1 aminoacylation ribozyme variant] | 1.27 | 0.817 | 0.953 | 0.806 | 0.876 | 0.801 |
| CUACUGCAAACAAUCGGUCUC [Fam1A.1 aminoacylation ribozyme variant] | 0.785 | 0.716 | 0.855 | 0.916 | 0.681 | 0.885 |
| CUACUGCAAACAAUCGGUCUU [Fam1A.1 aminoacylation ribozyme variant] | 1.06 | 0.953 | 0.974 | 0.963 | 0.857 | 0.836 |
| CUACUGCAAACAAUGGGUCUG [Fam1A.1 aminoacylation ribozyme variant] | 1.5 | 1.13 | 1.25 | 1.2 | 1.12 | 1.08 |
| CUACUGCAACCAAUCGGUCUG [Fam1A.1 aminoacylation ribozyme variant] | 0.691 | 0.495 | 0.53 | 0.585 | 0.608 | 0.567 |
| CUACUGCUAACAAUCGGUCUG [Fam1A.1 aminoacylation ribozyme variant] | 0.437 | 0.597 | 0.538 | 0.491 | 0.418 | 0.559 |
| CUACUUAAAACAAUAGGUCUG [Fam1A.1 aminoacylation ribozyme variant] | 0.984 | 0.893 | 0.928 | 1.15 | 0.747 | 0.934 |

| Sequence | self-aminoacylation [1] | self-aminoacylation [2] | self-aminoacylation [3] | self-aminoacylation [4] | self-aminoacylation [5] | self-aminoacylation [6] |
| --- | --- | --- | --- | --- | --- | --- |
| CUACUUAAAACAAUCCGUCUG [Fam1A.1 aminoacylation ribozyme variant] | 0.461 | 0.756 | 0.799 | 0.876 | 0.547 | 0.905 |
| CUACUUAAAACAAUCGGGCUG [Fam1A.1 aminoacylation ribozyme variant] | 0.623 | 0.999 | 1.31 | 1.05 | 0.924 | 1.02 |
| CUACUUAAAACACUCGGUCUG [Fam1A.1 aminoacylation ribozyme variant] | 0.731 | 0.882 | 0.992 | 0.758 | 0.762 | 0.792 |
| CUACUUAAAACCAUCGGUCUG [Fam1A.1 aminoacylation ribozyme variant] | 1.22 | 0.846 | 0.927 | 1.1 | 1.36 | 0.923 |
| CUACUUAAACCAAUCGGUCUG [Fam1A.1 aminoacylation ribozyme variant] | 0.538 | 0.594 | 0.88 | 0.693 | 0.473 | 0.67 |
| CUACUUAAUACAAUCGGUCUG [Fam1A.1 aminoacylation ribozyme variant] | 0.835 | 0.761 | 0.782 | 0.89 | 0.631 | 0.849 |
| CUACUUCAAAAAAUCGGUCAG [Fam1A.1 aminoacylation ribozyme variant] | 3.51 | 0.653 | 0.845 | 0.722 | 1.82 | 0.613 |
| CUACUUCAAAAAAUCGGUUUG [Fam1A.1 aminoacylation ribozyme variant] | 9.83 | 0.84 | 1.03 | 0.73 | 6.33 | 0.695 |
| CUACUUCAAAAAUUCGGUCUG [Fam1A.1 aminoacylation ribozyme variant] | 3.5 | 1.65 | 1.44 | 1.37 | 1.12 | 1.45 |
| CUACUUCAAACAAAAGGUCUG [Fam1A.1 aminoacylation ribozyme variant] | 0.784 | 0.618 | 0.822 | 0.624 | 0.592 | 0.946 |
| CUACUUCAAACAAACGUUCUG [Fam1A.1 aminoacylation ribozyme variant] | 0.686 | 0.579 | 0.591 | 0.529 | 0.591 | 0.622 |
| CUACUUCAAACAAAGGGUCUG [Fam1A.1 aminoacylation ribozyme variant] | 0.589 | 0.567 | 0.756 | 0.763 | 0.669 | 0.724 |
| CUACUUCAAACAACGGGUCUG [Fam1A.1 aminoacylation ribozyme variant] | 0.618 | 0.627 | 0.937 | 0.716 | 0.697 | 0.904 |
| CUACUUCAAACAAGCGGUCUA [Fam1A.1 aminoacylation ribozyme variant] | 0.85 | 0.73 | 0.936 | 0.838 | 0.669 | 0.707 |
| CUACUUCAAACAAUAGGUCAG [Fam1A.1 aminoacylation ribozyme variant] | 1.19 | 0.577 | 0.688 | 0.602 | 0.568 | 0.812 |
| CUACUUCAAACAAUAGGUCGG [Fam1A.1 aminoacylation ribozyme variant] | 0.7 | 0.754 | 0.792 | 0.643 | 0.676 | 0.693 |
| CUACUUCAAACAAUAGGUCUA [Fam1A.1 aminoacylation ribozyme variant] | 0.832 | 0.639 | 0.755 | 0.699 | 0.756 | 0.776 |
| CUACUUCAAACAAUAGGUCUG [Fam1A.1 aminoacylation ribozyme variant] | 1.11 | 0.681 | 0.813 | 0.696 | 0.617 | 0.817 |
| CUACUUCAAACAAUCCAUCUG [Fam1A.1 aminoacylation ribozyme variant] | 1.08 | 0.546 | 0.656 | 0.489 | 0.402 | 0.748 |
| CUACUUCAAACAAUCCGGCUG [Fam1A.1 aminoacylation ribozyme variant] | 1.01 | 1.44 | 1.5 | 1.4 | 0.952 | 1.78 |
| CUACUUCAAACAAUCCUUCUG [Fam1A.1 aminoacylation ribozyme variant] | 1.04 | 0.469 | 0.603 | 0.577 | 0.528 | 0.665 |
| CUACUUCAAACAAUCGAACUG [Fam1A.1 aminoacylation ribozyme variant] | 0.805 | 0.595 | 0.683 | 0.617 | 0.468 | 0.595 |
| CUACUUCAAACAAUCGAGCUG [Fam1A.1 aminoacylation ribozyme variant] | 0.816 | 0.481 | 0.85 | 0.59 | 0.396 | 0.706 |
| CUACUUCAAACAAUCGAUUUG [Fam1A.1 aminoacylation ribozyme variant] | 1.26 | 0.482 | 0.717 | 0.63 | 0.752 | 0.657 |
| CUACUUCAAACAAUCGCCCUG [Fam1A.1 aminoacylation ribozyme variant] | 0.818 | 0.959 | 1.05 | 1.19 | 0.581 | 1.2 |
